This assay concerns the target MglA^+ of Thermus thermophilus (Thermus thermophilus). As to the kind of experiment: fluorescence polarisation.

“MglB of Thermus thermophilus (natural protein)” yielded a fold higher affinity for MglA^+/mGppNHp than for MglA^+/GDP of 60 fold.

Values taken from publication PMC2910265.
